# Tests used:
# [1] = molecular target: V3 loop-deleted (Δ297-329) HIV-1IIIB env glycoprotein expressed by vv-7ΔV3 (HIV-1 IIIB isolate) (UniProt P04578); test: cell-based or functional assay
# [2] = molecular target: CD4 receptor on CD4+ cells (SupT-1 cells; IL-2-dependent CD4+ T lymphocytes) (UniProt P01730); test: cell-based or functional assay
substance,measurement,setting,value
"F105, human mAb directed against a discontinuous gp120 epitope overlapping the CD4 binding site (antibody)","ADCC specific lysis (51Cr release, E:T 50:1)",[1],< 4%
V3 loop-deleted (Δ297-329) HIV-1IIIB env glycoprotein expressed by vv-7ΔV3 (from UniProt P04578 33-296; P04578 330-856),"activation-induced apoptosis of CD4+ T lymphocytes (fragmented DNA, PI, 72 hrs)",[2],< 7%
full-length (wild-type) HIV-1IIIB env glycoprotein expressed by vv-WTP-2 (from UniProt P04578 33-856),"apoptotic cells (sub-G1 DNA content, PI staining) in infected SupT-1 cells, 16 hr",[2],20%
same,syncytium formation in infected SupT-1 cells,[2],80 to 90%

# Reference: patent US20020182180A1
